According to CN115073593A (SHANGHAI JUNSHI BIOSCIENCES CO LTD; JUNMENG BIOSCIENCES CO …, dated 2022):

Target: 生物素化的SARS-CoV-2 RBD (SARS-CoV-2, UniProt P0DTC2 319-541)
Assay: ELISA screen, Fab culture supernatant on streptavidin-captured biotinylated RBD

Row | Binder | binding result
1 | CB6-15 (重链突变库克隆) (Fab, also called CB6-15-VH; CB6-15-HC) VH: EVQLVESGGGLVQPGGSLRLSCAASGFQVNRNYMSWVRQAPGKGLEWVSVIYPGGSTFYADSVKGRFTISRDNSMNTLFLQMNSLRAEDTAVYYCARVLPMYGDYLDYWGQGTLVTVSS light: […] | binds
2 | CB6-30 (轻链突变库克隆) (Fab, V domains shown, also called CB6-30-VL; CB6-30-LC) VH: EVQLVESGGGLVQPGGSLRLSCAASGFTVSSNYMSWVRQAPGKGLEWVSVIYSGGSTFYADSVKGRFTISRDNSMNTLFLQMNSLRAEDTAVYYCARVLPMYGDYLDYWGQGTLVTVSS VL: DIVMTQSPSSLSASVGDRVTITCRASQWILPYLNWYQQKPGKAPKLLIYAASSLQSGVPSRFSGSGSGTDFTLTISSLQPEDFATYYCQQSSSSTPEYTFGQGTKLEIK | binds
3 | CB6-29 (轻链突变库克隆) (Fab, V domains shown, also called CB6-29-VL; CB6-29-LC) VH: EVQLVESGGGLVQPGGSLRLSCAASGFTVSSNYMSWVRQAPGKGLEWVSVIYSGGSTFYADSVKGRFTISRDNSMNTLFLQMNSLRAEDTAVYYCARVLPMYGDYLDYWGQGTLVTVSS VL: DIVMTQSPSSLSASVGDRVTITCRASQMILPYLNWYQQKPGKAPKLLIYAASSLQSGVPSRFSGSGSGTDFTLTISSLQPEDFATYYCQQSSSAKPEYTFGQGTKLEIK | binds
4 | CB6-36 (轻链突变库克隆) (Fab, V domains shown, also called CB6-36-VL; CB6-36-LC) VH: EVQLVESGGGLVQPGGSLRLSCAASGFTVSSNYMSWVRQAPGKGLEWVSVIYSGGSTFYADSVKGRFTISRDNSMNTLFLQMNSLRAEDTAVYYCARVLPMYGDYLDYWGQGTLVTVSS VL: DIVMTQSPSSLSASVGDRVTITCRASQAILPYLNWYQQKPGKAPKLLIYAASSLQSGVPSRFSGSGSGTDFTLTISSLQPEDFATYYCQQSSSALPEYTFGQGTKLEIK | binds
5 | CB6-25 (轻链突变库克隆) (Fab, V domains shown, also called CB6-25-VL; CB6-25-LC) VH: EVQLVESGGGLVQPGGSLRLSCAASGFTVSSNYMSWVRQAPGKGLEWVSVIYSGGSTFYADSVKGRFTISRDNSMNTLFLQMNSLRAEDTAVYYCARVLPMYGDYLDYWGQGTLVTVSS VL: DIVMTQSPSSLSASVGDRVTITCRASQNIMQYLNWYQQKPGKAPKLLIYAASSLQSGVPSRFSGSGSGTDFTLTISSLQPEDFATYYCQQSSSPKPEYTFGQGTKLEIK | binds
6 | CB6-24 (轻链突变库克隆) (Fab, V domains shown, also called CB6-24-VL; CB6-24-LC) VH: EVQLVESGGGLVQPGGSLRLSCAASGFTVSSNYMSWVRQAPGKGLEWVSVIYSGGSTFYADSVKGRFTISRDNSMNTLFLQMNSLRAEDTAVYYCARVLPMYGDYLDYWGQGTLVTVSS VL: DIVMTQSPSSLSASVGDRVTITCRASQQISRYLNWYQQKPGKAPKLLIYAASSLQSGVPSRFSGSGSGTDFTLTISSLQPEDFATYYCQQSSSPTPEYTFGQGTKLEIK | binds
7 | CB6-28 (轻链突变库克隆) (Fab, V domains shown, also called CB6-28-VL; CB6-28-LC) VH: EVQLVESGGGLVQPGGSLRLSCAASGFTVSSNYMSWVRQAPGKGLEWVSVIYSGGSTFYADSVKGRFTISRDNSMNTLFLQMNSLRAEDTAVYYCARVLPMYGDYLDYWGQGTLVTVSS VL: DIVMTQSPSSLSASVGDRVTITCRASQDIVSYLNWYQQKPGKAPKLLIYAASSLQSGVPSRFSGSGSGTDFTLTISSLQPEDFATYYCQQSASPTPEYTFGQGTKLEIK | binds
8 | CB6-23 (轻链突变库克隆) (Fab, V domains shown, also called CB6-23-VL; CB6-23-LC) VH: EVQLVESGGGLVQPGGSLRLSCAASGFTVSSNYMSWVRQAPGKGLEWVSVIYSGGSTFYADSVKGRFTISRDNSMNTLFLQMNSLRAEDTAVYYCARVLPMYGDYLDYWGQGTLVTVSS VL: DIVMTQSPSSLSASVGDRVTITCRASQWIPSYLNWYQQKPGKAPKLLIYAASSLQSGVPSRFSGSGSGTDFTLTISSLQPEDFATYYCQQSKSWKPEYTFGQGTKLEIK | binds
9 | CB6-32 (轻链突变库克隆) (Fab, V domains shown, also called CB6-32-VL; CB6-32-LC) VH: EVQLVESGGGLVQPGGSLRLSCAASGFTVSSNYMSWVRQAPGKGLEWVSVIYSGGSTFYADSVKGRFTISRDNSMNTLFLQMNSLRAEDTAVYYCARVLPMYGDYLDYWGQGTLVTVSS VL: DIVMTQSPSSLSASVGDRVTITCRASQDIDGYLNWYQQKPGKAPKLLIYAASSLQSGVPSRFSGSGSGTDFTLTISSLQPEDFATYYCQQSASPVPEYTFGQGTKLEIK | binds
10 | CB6-31 (轻链突变库克隆) (Fab, V domains shown, also called CB6-31-VL; CB6-31-LC) VH: EVQLVESGGGLVQPGGSLRLSCAASGFTVSSNYMSWVRQAPGKGLEWVSVIYSGGSTFYADSVKGRFTISRDNSMNTLFLQMNSLRAEDTAVYYCARVLPMYGDYLDYWGQGTLVTVSS VL: DIVMTQSPSSLSASVGDRVTITCRASQQIRQYLNWYQQKPGKAPKLLIYAASSLQSGVPSRFSGSGSGTDFTLTISSLQPEDFATYYCQQSSSPTPEYTFGQGTKLEIK | binds
11 | CB6-26 (轻链突变库克隆) (Fab, V domains shown, also called CB6-26-VL; CB6-26-LC) VH: EVQLVESGGGLVQPGGSLRLSCAASGFTVSSNYMSWVRQAPGKGLEWVSVIYSGGSTFYADSVKGRFTISRDNSMNTLFLQMNSLRAEDTAVYYCARVLPMYGDYLDYWGQGTLVTVSS VL: DIVMTQSPSSLSASVGDRVTITCRASQRIEQYLNWYQQKPGKAPKLLIYAASSLQSGVPSRFSGSGSGTDFTLTISSLQPEDFATYYCQQSASSSPEYTFGQGTKLEIK | binds
12 | CB6-27 (轻链突变库克隆) (Fab, V domains shown, also called CB6-27-VL; CB6-27-LC) VH: EVQLVESGGGLVQPGGSLRLSCAASGFTVSSNYMSWVRQAPGKGLEWVSVIYSGGSTFYADSVKGRFTISRDNSMNTLFLQMNSLRAEDTAVYYCARVLPMYGDYLDYWGQGTLVTVSS VL: DIVMTQSPSSLSASVGDRVTITCRASQSILPYLNWYQQKPGKAPKLLIYAASSLQSGVPSRFSGSGSGTDFTLTISSLQPEDFATYYCQQSNSPRPEYTFGQGTKLEIK | binds
13 | CB6-37 (轻链突变库克隆) (Fab, V domains shown, also called CB6-37-VL; CB6-37-LC) VH: EVQLVESGGGLVQPGGSLRLSCAASGFTVSSNYMSWVRQAPGKGLEWVSVIYSGGSTFYADSVKGRFTISRDNSMNTLFLQMNSLRAEDTAVYYCARVLPMYGDYLDYWGQGTLVTVSS VL: DIVMTQSPSSLSASVGDRVTITCRASQMILPYLNWYQQKPGKAPKLLIYAASSLQSGVPSRFSGSGSGTDFTLTISSLQPEDFATYYCQQSSSATPEYTFGQGTKLEIK | binds
14 | CB6-35 (轻链突变库克隆) (Fab, V domains shown, also called CB6-35-VL; CB6-35-LC) VH: EVQLVESGGGLVQPGGSLRLSCAASGFTVSSNYMSWVRQAPGKGLEWVSVIYSGGSTFYADSVKGRFTISRDNSMNTLFLQMNSLRAEDTAVYYCARVLPMYGDYLDYWGQGTLVTVSS VL: DIVMTQSPSSLSASVGDRVTITCRASQKIHQYLNWYQQKPGKAPKLLIYAASSLQSGVPSRFSGSGSGTDFTLTISSLQPEDFATYYCQQSESSKPEYTFGQGTKLEIK | binds
15 | CB6-22 (轻链突变库克隆) (Fab, V domains shown, also called CB6-22-VL; CB6-22-LC) VH: EVQLVESGGGLVQPGGSLRLSCAASGFTVSSNYMSWVRQAPGKGLEWVSVIYSGGSTFYADSVKGRFTISRDNSMNTLFLQMNSLRAEDTAVYYCARVLPMYGDYLDYWGQGTLVTVSS VL: DIVMTQSPSSLSASVGDRVTITCRASQRILPYLNWYQQKPGKAPKLLIYAASSLQSGVPSRFSGSGSGTDFTLTISSLQPEDFATYYCQQSSSATPEYTFGQGTKLEIK | binds
16 | CB6-21 (轻链突变库克隆) (Fab, V domains shown, also called CB6-21-VL; CB6-21-LC) VH: EVQLVESGGGLVQPGGSLRLSCAASGFTVSSNYMSWVRQAPGKGLEWVSVIYSGGSTFYADSVKGRFTISRDNSMNTLFLQMNSLRAEDTAVYYCARVLPMYGDYLDYWGQGTLVTVSS VL: DIVMTQSPSSLSASVGDRVTITCRASQWIGNYLNWYQQKPGKAPKLLIYAASSLQSGVPSRFSGSGSGTDFTLTISSLQPEDFATYYCQQSTSNRPEYTFGQGTKLEIK | binds
17 | CB6-20 (轻链突变库克隆) (Fab, V domains shown, also called CB6-20-VL; CB6-20-LC) VH: EVQLVESGGGLVQPGGSLRLSCAASGFTVSSNYMSWVRQAPGKGLEWVSVIYSGGSTFYADSVKGRFTISRDNSMNTLFLQMNSLRAEDTAVYYCARVLPMYGDYLDYWGQGTLVTVSS VL: DIVMTQSPSSLSASVGDRVTITCRASQAILPYLNWYQQKPGKAPKLLIYAASSLQSGVPSRFSGSGSGTDFTLTISSLQPEDFATYYCQQSYSIIPEYTFGQGTKLEIK | binds
18 | CB6-18 (轻链突变库克隆) (Fab, V domains shown, also called CB6-18-VL; CB6-18-LC) VH: EVQLVESGGGLVQPGGSLRLSCAASGFTVSSNYMSWVRQAPGKGLEWVSVIYSGGSTFYADSVKGRFTISRDNSMNTLFLQMNSLRAEDTAVYYCARVLPMYGDYLDYWGQGTLVTVSS VL: DIVMTQSPSSLSASVGDRVTITCRASQDIHVYLNWYQQKPGKAPKLLIYAASSLQSGVPSRFSGSGSGTDFTLTISSLQPEDFATYYCQQSGSPVPEYTFGQGTKLEIK | binds
19 | CB6-19 (轻链突变库克隆) (Fab, V domains shown, also called CB6-19-VL; CB6-19-LC) VH: EVQLVESGGGLVQPGGSLRLSCAASGFTVSSNYMSWVRQAPGKGLEWVSVIYSGGSTFYADSVKGRFTISRDNSMNTLFLQMNSLRAEDTAVYYCARVLPMYGDYLDYWGQGTLVTVSS VL: DIVMTQSPSSLSASVGDRVTITCRASQQINFYLNWYQQKPGKAPKLLIYAASSLQSGVPSRFSGSGSGTDFTLTISSLQPEDFATYYCQQSGSSLPEYTFGQGTKLEIK | binds
20 | CB6-17 (轻链突变库克隆) (Fab, V domains shown, also called CB6-17-VL; CB6-17-LC) VH: EVQLVESGGGLVQPGGSLRLSCAASGFTVSSNYMSWVRQAPGKGLEWVSVIYSGGSTFYADSVKGRFTISRDNSMNTLFLQMNSLRAEDTAVYYCARVLPMYGDYLDYWGQGTLVTVSS VL: DIVMTQSPSSLSASVGDRVTITCRASQVINHYLNWYQQKPGKAPKLLIYAASSLQSGVPSRFSGSGSGTDFTLTISSLQPEDFATYYCQQSGSPTPEYTFGQGTKLEIK | binds
21 | CB6-34 (轻链突变库克隆) (Fab, V domains shown, also called CB6-34-VL; CB6-34-LC) VH: EVQLVESGGGLVQPGGSLRLSCAASGFTVSSNYMSWVRQAPGKGLEWVSVIYSGGSTFYADSVKGRFTISRDNSMNTLFLQMNSLRAEDTAVYYCARVLPMYGDYLDYWGQGTLVTVSS VL: DIVMTQSPSSLSASVGDRVTITCRASQSILQYLNWYQQKPGKAPKLLIYAASSLQSGVPSRFSGSGSGTDFTLTISSLQPEDFATYYCQQSSSPVPEYTFGQGTKLEIK | binds
22 | CB6-33 (轻链突变库克隆) (Fab, V domains shown, also called CB6-33-VL; CB6-33-LC) VH: EVQLVESGGGLVQPGGSLRLSCAASGFTVSSNYMSWVRQAPGKGLEWVSVIYSGGSTFYADSVKGRFTISRDNSMNTLFLQMNSLRAEDTAVYYCARVLPMYGDYLDYWGQGTLVTVSS VL: DIVMTQSPSSLSASVGDRVTITCRASQNILPYLNWYQQKPGKAPKLLIYAASSLQSGVPSRFSGSGSGTDFTLTISSLQPEDFATYYCQQSSSAVPEYTFGQGTKLEIK | binds
